Measurements: article PMC11670113 (Proceedings of the National Academy of Sciences of the …, 2024)

B1: AP-3 δ subunit (residues 1-617), as in the AP-3 core (domain or fragment, human, UniProt O14617 1-617, looked up)
chain: MALKMVKGSIDRMFDKNLQDLVRGIRNHKEDEAKYISQCIDEIKQELKQDNIAVKANAVCKLTYLQMLGYDISWAAFNIIEVMSASKFTFKRIGYLAASQSFHEGTDVIMLTTNQIRKDLSSPSQYDTGVALTGLSCFVTPDLARDLANDIMTLMSHTKPYIRKKAVLIMYKVFLKYPESLRPAFPRLKEKLEDPDPGVQSAAVNVICELARRNPKNYLSLAPLFFKLMTSSTNNWVLIKIIKLFGALTPLEPRLGKKLIEPLTNLIHSTSAMSLLYECVNTVIAVLISLSSGMPNHSASIQLCVQKLRILIEDSDQNLKYLGLLAMSKILKTHPKSVQSHKDLILQCLDDKDESIRLRALDLLYGMVSKKNLMEIVKKLMTHVDKAEGTTYRDELLTKIIDICSQSNYQYITNFEWYISILVELTRLEGTRHGHLIAAQMLDVAIRVKAIRKFAVSQMSALLDSAHLLASSTQRNGICEVLYAAAWICGEFSEHLQEPHHTLEAMLRPRVTTLPGHIQAVYVQNVVKLYASILQQKEQAGEAEGAQAVTQLMVDRLPQFVQSADLEVQERASCILQLVKHIQKLQAKDVPVAEEVSALFAGELNPVAPKAQKKVPV
B2: full-length, myristoylated Arf1-Q71L (enzyme)
chain: not shown
modifications: myristoylated

Assays:
cryo-EM structure = biological target: the molecule itself; experiment: cryo-EM structure
[1] = biological target: B1; experiment: cryo-EM structure

Binder | binding result (cryo-EM structure) | binding result [1]
B1 | binds | –
B2 | – | binds
